Several values for one entry are separate records, joined by “and”; a condition that tells them apart may be missing. Equal values may be shown once.
Key:
[1] = molecular target: TraM (TraR antiactivator) of plasmid pAoF64/95 (Agrobacterium spp. (plasmid pAoF64/95)); experiment: two-hybrid; bacterial two-hybrid (LexA-WT and LexA-MUT fusions) in E. coli SU202; heterodimerization represses lacZ; quantitative beta-galactosidase activity against the strain with empty vectors pSR658 and pSR659, n = 3
[2] = molecular target: Jun (LexA fusion, positive control of the bacterial two-hybrid system); experiment: as above

**Q.** For “TmsPs (short form of TmsP, tra M sequestering protein, of plasmid pAoF64/95) (natural protein)”, which fold lower beta-galactosidase activity than the empty-vector control strain [1] is on record?
**A.** 2 fold and 3 fold

**Q.** For “Fos (LexA fusion, positive control of the bacterial two-hybrid system) (natural protein)”, which fold lower beta-galactosidase activity than the empty-vector control strain [2] is on record?
**A.** 52 fold
